Measured values from US20110200525A1 (published 2011).
Where “and” joins values, the source holds several entries; their conditions need not be identical. Equal values may be shown once. Values belong to the binder of their own block, whether it stands above or below them.

What was measured:
human EGFR wild type [1] = biological target: T1, human EGFR wild type (human, UniProt P00533 25-1210); assay: saturation binding of 125I-labelled VHH122 on an EGFR-expressing cell, specific binding in CPM
T1 construct: whole, on cells; also called EGFR on NR6W cells; EGFR in NR6W lysate

EGFR ECD (wild type) [2] = biological target: T2, EGFR ECD (wild type) (UniProt P00533 25-645, limits assumed); assay: SPR, Biacore 3000, EGFR ECD on CM5 chip, VHH at 0.6 µM
T2 construct: extracellular domain; the cell lines carry human EGFR; also called wild type EGFR ECD; EGFR extracellular domain
Method: (§1) The ka, kd, and KD values were determined for the binding of two VHH domains to the ECDs of EGFR and EGFRvIII by surface plasmon resonance (SPR). The ECDs were coupled to BIACORE® CM5 chips and VHH domains were sequentially flowed over each protein in the BIACORE® 3000 (GE Healthcare).

EGFR ECD (wild type) [3] = biological target: T2, EGFR ECD (wild type); assay: SPR, Biacore 3000, ECD on CM5 chip; summary value
Method: as §1

EGFRvIII ECD [4] = biological target: T3, EGFRvIII ECD (UniProt P00533 25-645); assay: SPR, Biacore 3000, ECD on CM5 chip; summary value
T3 construct: extracellular domain; Deletion mutant; also called vIII mutant EGFR ECD
Method: as §1

EGFR ECD (wild type) [5] = biological target: T2, EGFR ECD (wild type); assay: SPR, Biacore 3000, EGFR ECD on CM5 chip, VHH at 1.0 µM
Method: as §1

EGFRvIII ECD [6] = biological target: T3, EGFRvIII ECD; assay: SPR, Biacore 3000, EGFRvIII ECD on CM5 chip, VHH at 0.6 µM
Method: as §1

EGFRvIII ECD [7] = biological target: T3, EGFRvIII ECD; assay: SPR, Biacore 3000, EGFRvIII ECD on CM5 chip, VHH at 1.0 µM
Method: as §1

human EGFRvIII = biological target: T4, human EGFRvIII (human, UniProt P00533 25-1210); assay: phage format; assay not given
T4 construct: whole, on cells; Deletion mutant; also called EGFRvIII on NR6M cells; VIII mutant EGFR

human EGFR wild type [8] = biological target: T1, human EGFR wild type; assay: phage format; assay not given
EGFR ECD (wild type) [9] = biological target: T2, EGFR ECD (wild type); assay: SPR, Biacore 3000, ECD coupled to CM5 chip
Method: as §1

EGFRvIII ECD [10] = biological target: T3, EGFRvIII ECD; assay: SPR, Biacore 3000, ECD coupled to CM5 chip
Method: as §1

human EGFR wild type [11] = biological target: T1, human EGFR wild type; assay: pull-down from NR6W lysate by His-tagged VHH on a nickel-chelate plate, Western blot with anti-EGFR mAb H11
Method: The VHH domains were allowed to bind to the plate wells for 16 hr at 4° C., and then the wells were washed 3 times with Tris-buffered saline containing 0.1% (v/v) TWEEN®-20 (TBST). NR6W lysate (450 μg) made with M-PER reagent (Pierce) plus EDTA-free protease inhibitors (Roche Applied Science) was added to each well and allowed to incubate for 16 hr at 4° C. The lysate was removed, and the wells were washed 15 times with TBST. Protein remaining on the well surface was eluted in SDS-PAGE sample buffer containing 1% (v/v) β-mercaptoethanol and 100 mM imidazole, preheated to 95° C. […] The blot was developed with SuperSignal West™ substrate (Pierce) and exposed to film.
NR6W lysate was added to each well and allowed to incubate for 16 hr at 4° C. The lysate was removed, the wells were washed and remaining protein eluted. Samples were subjected to SDS-PAGE and proteins were transferred to a PVDF membrane that was then probed for EGFR.

B1: [125I]VHH122 (VHH)
VHH: EVQLQESGGGLVQAGDSLRLSCLVSGRSFNSYTMGWFRQAPGKEREFVAAILWSGPTTYYADSVKGRFTISRDNAKNTVYLQMNSLKPEDTAVYYCAAALGVLVLAPGNVYSYWGQGTQVTVSS
modifications: 125I label; labelled residues not stated
notes: not shown: C-terminal 6-His and myc tags from pHEN1-H6
Kd (human EGFR wild type [1]): 0.046 µM

B2: VHH122 (VHH)
VHH: B1 VHH
notes: polyhistidine and myc tagged; also called VH122; not shown: C-terminal 6-His and myc tags from pHEN1-H6
Ka (EGFR ECD (wild type) [2]): 2.58e+07 M⁻¹
Kd (EGFR ECD (wild type) [2]): 0.0387 µM
koff (EGFR ECD (wild type) [2]): 0.00318 s⁻¹
kon (EGFR ECD (wild type) [2]): 82300 M⁻¹ s⁻¹
Kd (EGFR ECD (wild type) [3]): ~0.04 µM
Kd (EGFRvIII ECD [4]): ~0.04 µM
Ka (EGFR ECD (wild type) [5]): 4.95e+07 M⁻¹ and 1.73e+07 M⁻¹
Kd (EGFR ECD (wild type) [5]): 0.0202 µM and 0.0578 µM
koff (EGFR ECD (wild type) [5]): 0.00207 s⁻¹ and 0.00333 s⁻¹
kon (EGFR ECD (wild type) [5]): 57600 M⁻¹ s⁻¹ and 102000 M⁻¹ s⁻¹
Ka (EGFRvIII ECD [6]): 3.01e+07 M⁻¹
Kd (EGFRvIII ECD [6]): 0.0332 µM
koff (EGFRvIII ECD [6]): 0.00304 s⁻¹
kon (EGFRvIII ECD [6]): 91300 M⁻¹ s⁻¹
Ka (EGFRvIII ECD [7]): 1.82e+07 M⁻¹
Kd (EGFRvIII ECD [7]): 0.055 µM
koff (EGFRvIII ECD [7]): 0.00308 s⁻¹
kon (EGFRvIII ECD [7]): 56100 M⁻¹ s⁻¹

Results, then the binder that gave them:

binding result (human EGFRvIII): no binding
binding result (human EGFR wild type [8]): binds
B3: VHH03 (VHH)
VHH: EVKLQQSGGGLVQPGGSLTLSCVTSGFTFSTYGMDWVRQAPGKGFEWVASISFGGGITNYGDFVKGRFTISRDNAKNTLYLHMNGLKPDDTAVYYCQMGSKRGQGTQVTVSS

Ka (EGFR ECD (wild type) [5]): 1.34e+07 M⁻¹
Kd (EGFR ECD (wild type) [5]): 0.0747 µM
koff (EGFR ECD (wild type) [5]): 0.0115 s⁻¹
kon (EGFR ECD (wild type) [5]): 154000 M⁻¹ s⁻¹
B4: VHH205 (VHH)
VHH: QVKLQESGGGLVQSGGSLRLSCIASGSTVSGNTMGWYRQAPGKQRELVAVISSVGVSNVAQSVKGRFAISRDNAKNTVYLQMSSLKPEDTAVYYCNALGTGRANWGQGTQVTVSS
notes: Free VHH used in SPR; not shown: C-terminal 6-His and myc tags from pHEN1-H6

binding result (EGFR ECD (wild type) [9]): no binding
binding result (EGFRvIII ECD [10]): no binding
binding result (human EGFR wild type [11]): no binding (tested: 20 ug VHH per well)
B5: RP2 (VHH)
VHH: EVQLQESGGGLVQAGGSLRLSCAASGSTFSNEPFGWYRGAPGKLRELVGTISAGGNTNYVDAVKGRFMISRDNGRRMVYLQMNNLRPDDTAVYYCWNRGYWGQGTQVTVSS
notes: Random library clone used as negative control, as free VHH; also called random VHH domain RP2; control VHH RP2; not shown: C-terminal 6-His and myc tags from pHEN1-H6
